This note sets out measurements from patent publication US20250059241A1 (SYNGENTA CROP PROTECTION, published 2025).

In this test the target is T1, Spore-Cry1Fa (Bacillus subtilis spores displaying the Bacillus thuringiensis Cry1Fa protein as a … (Bacillus thuringiensis, UniProt Q03746 1-615)).
T1 construct: vector pSB634 or pHY300PLK
T1 sequence: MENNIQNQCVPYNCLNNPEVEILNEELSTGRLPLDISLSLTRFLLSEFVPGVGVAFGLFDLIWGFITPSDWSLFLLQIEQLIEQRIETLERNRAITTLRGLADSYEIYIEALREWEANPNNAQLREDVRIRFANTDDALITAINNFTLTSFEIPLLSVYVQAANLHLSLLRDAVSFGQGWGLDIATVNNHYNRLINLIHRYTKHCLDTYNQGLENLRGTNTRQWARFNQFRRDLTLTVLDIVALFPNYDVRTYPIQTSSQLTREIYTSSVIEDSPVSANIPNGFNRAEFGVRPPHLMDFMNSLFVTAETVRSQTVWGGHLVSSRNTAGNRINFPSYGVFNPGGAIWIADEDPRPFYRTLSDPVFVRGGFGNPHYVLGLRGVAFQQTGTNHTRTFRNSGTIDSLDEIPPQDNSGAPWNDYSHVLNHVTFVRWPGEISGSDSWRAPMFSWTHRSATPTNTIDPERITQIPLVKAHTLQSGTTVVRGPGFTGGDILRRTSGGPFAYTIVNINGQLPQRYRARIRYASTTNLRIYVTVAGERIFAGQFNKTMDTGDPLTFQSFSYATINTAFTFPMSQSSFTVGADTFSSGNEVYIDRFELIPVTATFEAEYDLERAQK
Description: bright field and fluorescence microscopy of spores mixed with Sf9 cells.

B1: Sf-ABCC2-Mutant (ABCC2 from a Cry1Fa-resistant Spodoptera frugiperda strain, C-terminal FLAG tag) expressed on Sf9 cells (receptor)
chain: MDKSNKNTAANGNGGQRAGEPKERVRKKPNILSRIFVWWIFPVLITGNKRDVEEDDLIVPSKKFNSERQGEYFERYWFEEVAIAEREDRDPSLWKAMRRAYWLQYMPGAIFVLLISGLRTAQPLLFSQLLSYWSVDSEMSQQDAGLYALAMLGINFITMMCTHHNNLFVMRFSMKVKIAASSLLFRKLLRMSQVSVGDVAGGKLVNLLSNDVARFDYAFMFLHYLWVVPLQVGVVLYFVYDAAGWAPYVGLFGVIILIMPLQAGLTKLTGVVRRMTAKRTDKRIKLMSEIINGIQVIKMYAWEKPFQLVVKAARAYEMSALRKSIFIRSMFLGFMLFTERSVMFLTVLTLALTGNMISATLIYPIQQYFGIITMNVTLILPMAFASFSEMLISLERIQGFLLLDERSDIQITPKVVNGAGSKLFNNSKKEGGLETGIVLPTKYSPTEANMARPMQDEPNMADYPVQLNKVNATWADLNDNKEMTLKNISSRVRKNKLCAVIGPVGSGKTSLLQLLLRELPVTSGNLSISGTVSYASQEPWLFPATVRENILFGLEYNVAKYKEVCKVCSLLPDFKQFPYGDLSLVGERGVSLSGGQRARINLARAVYREADIYLLDDPLSAVDANVGRQLFDGCIKGYLSGKTCILVTHQIHYLKAADFIVVLNEGSVENMGSYDELMKTGTEFSMLLSDQASEGSDTDKKERPAMMRGISKMSVKSDDEEGEEKVQVLEAEERQSGSLKWDVLGRYMKSVNSWCMVVMAFLVLVITQGAATTTDYWLSFWTNQVDIQTLPEGESKNPELNTQVGLLTTGQYLIVHGSVVLAIIILTQVRILSFVVMTMRASENLHNTIYEKLIVAVMRFFDTNPSGRVLNRFSKDMGAMDELLPRSMLETVQMYLSLASVLVLNAIALPWTLIPTTVLMFIFVFLLKWYINAAQAVKRLEGTTKSPVFGMINSTISGLSTIRSSNSQDRLLNSFDDAQNLHTSAFYTFLGGSTAFGLYLDTLCLIYLGIIMSIFILGDFGELIPVGSVGLAVSQSMVLTMMLQMAAKFTADFLGQMTAVERVLEYTKLPTEENMETGPTTPPKDWPSAGEVTFSNVYLKYSPDDPPVLKDLNFAIKSGWKVGVVGRTGAGKSSLISALFRLSDITGSIKIDGLDTQGIAKKLLRSKISIIPQEPVLFSASLRYNLDPFDNYNDEDIWRALEQVELKESIPALDYKVSEGGTNFSMGQRQLVCLARAILRSNKILIMDEATANVDPQTDALIQKTIRKQFATCTVLTIAHRLNTIMDSDRVLVMDQGVAAEFDHPYILLSNPNSKFSSMVKETGDNMSRILFEVAKTKYESDSKTADYKDDDDK
notes: Expressed in Sf9 cells by baculovirus
In the case of B1, the binding result is “no binding”.
